Target: Sox2(24-118) DBD (UniProt P48431 24-118)
Assay: NMR titration; 0.5 M ionic strength; specific binding in slow exchange, nonspecific mode reduced; 20 mM Tris, 135 mM KCl, 15 mM NaCl, pH 7.3 (NMR: 10% D2O, 0.01% NaN3, 293 K; nanoDSF: 25 uM protein, 1 mM DTT in protein/DNA buffer, 288-368 K at 1 K/min)
Details: protein: recombinant; tags: N-terminal T7-tag; blunt

Chain of Sox2(24-118) DBD (P48431 24-118): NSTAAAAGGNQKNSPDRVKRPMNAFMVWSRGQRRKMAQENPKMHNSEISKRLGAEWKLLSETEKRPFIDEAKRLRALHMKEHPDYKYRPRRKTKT

B1: FGF4 DNA 13-mer (dsDNA)
DNA 1: ACTCTTTGTTCGA
DNA 2: TCGAACAAAGAGT
Does B1 bind?
Result: binds

From PMC12585912, “Solution structure of the Sox2 DNA-binding domain reveals conformational selection in DNA binding”
